Experimental data taken from patent US20240366718A1 (IMMUNOS THERAPEUTICS, published 2024).

B1: LILRB2 (c-terminally biotinylated, BPS Bioscience #100335) (receptor, human, UniProt Q8N423 22-460, looked up)
chain: QTGTIPKPTLWAEPDSVITQGSPVTLSCQGSLEAQEYRLYREKKSASWITRIRPELVKNGQFHIPSITWEHTGRYGCQYYSRARWSELSDPLVLVMTGAYPKPTLSAQPSPVVTSGGRVTLQCESQVAFGGFILCKEGEDEHPQCLNSQPHARGSSRAIFSVGPVSPNRRWSHRCYGYDLNSPYVWSSPSDLLELLVPGVSKKPSLSVQPGPVMAPGESLTLQCVSDVGYDRFVLYKEGERDLRQLPGRQPQAGLSQANFTLGPVSRSYGGQYRCYGAHNLSSECSAPSDPLDILITGQIRGTPFISVQPGPTVASGENVTLLCQSWRQFHTFLLTKAGAADAPLRLRSIHEYPKYQAEFPMSPVTSAHAGTYRCYGSLNSDPYLLSHPSEPLELVVSGPSMGSSPPPTGPISTPGPEDQPLTPTGSDPQSGLGRHLGV
modifications: C-terminal biotin
notes: Bought biotinylated protein; also called human LILRB2; biotinylated LILRB2
B2: human LILRB1 (receptor, UniProt Q8NHL6 24-458, looked up)
chain: GHLPKPTLWAEPGSVITQGSPVTLRCQGGQETQEYRLYREKKTALWITRIPQELVKKGQFPIPSITWEHAGRYRCYYGSDTAGRSESSDPLELVVTGAYIKPTLSAQPSPVVNSGGNVILQCDSQVAFDGFSLCKEGEDEHPQCLNSQPHARGSSRAIFSVGPVSPSRRWWYRCYAYDSNSPYEWSLPSDLLELLVLGVSKKPSLSVQPGPIVAPEETLTLQCGSDAGYNRFVLYKDGERDFLQLAGAQPQAGLSQANFTLGPVSRSYGGQYRCYGAHNLSSEWSAPSDPLDILIAGQFYDRVSLSVQPGPTVASGENVTLLCQSQGWMQTFLLTKEGAADDPWRLRSTYQSQKYQAEFPMGPVTSAHAGTYRCYGSQSSKPYLLTHPSDPLELVVSGPSGGPSSPTTGPTSTSGPEDQPLTPTGSDPQSGLGRH
B3: ANGPTL7 (R&D systems, 914-AN) (ligand, UniProt O43827 27-346, looked up)
chain: QKLSKHKTPAQPQLKAANCCEEVKELKAQVANLSSLLSELNKKQERDWVSVVMQVMELESNSKRMESRLTDAESKYSEMNNQIDIMQLQAAQTVTQTSADAIYDCSSLYQKNYRISGVYKLPPDDFLGSPELEVFCDMETSGGGWTIIQRRKSGLVSFYRDWKQYKQGFGSIRGDFWLGNEHIHRLSRQPTRLRVEMEDWEGNLRYAEYSHFVLGNELNSYRLFLGNYTGNVGNDALQYHNNTAFSTKDKDNDNCLDKCAQLRKGGYWYNCCTDSNLNGVYYRLGEHNKHLDGITWYGWHGSTYSLKRVEMKIRPEDFKP

Columns and labels:
[1] = target: T1, ANGPTL2 (R&D systems, 9795-AN) (UniProt Q9UKU9 23-493, limits assumed); assay: BLI, biotinylated LILRB2 sensors, ANGPTL2 titrated with or without prior incubation of the sensor with iosH2
T1 construct: also called ANGTPL2
T1 sequence (looked up): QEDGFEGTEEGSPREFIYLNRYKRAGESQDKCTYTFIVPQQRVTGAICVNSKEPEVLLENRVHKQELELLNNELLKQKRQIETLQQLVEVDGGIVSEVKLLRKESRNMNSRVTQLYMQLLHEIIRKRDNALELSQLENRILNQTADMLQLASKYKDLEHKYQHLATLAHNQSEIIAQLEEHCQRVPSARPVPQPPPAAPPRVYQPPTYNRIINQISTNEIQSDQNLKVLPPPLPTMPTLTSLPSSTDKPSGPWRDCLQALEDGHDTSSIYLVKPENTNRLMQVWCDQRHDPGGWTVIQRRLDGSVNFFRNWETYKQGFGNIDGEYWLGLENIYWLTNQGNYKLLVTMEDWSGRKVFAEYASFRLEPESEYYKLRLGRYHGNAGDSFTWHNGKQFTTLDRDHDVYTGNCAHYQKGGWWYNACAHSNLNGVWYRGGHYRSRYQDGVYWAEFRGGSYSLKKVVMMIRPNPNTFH

[2] = target: T2, HLA-B57(A46E/V97R).β2m (HLA-B57 A46E/V97R IgG4 fusion protein associated with β2m) (human; homo sapiens); assay: BLI
T2 construct: Complex secreted from CHO cells co-transfected with the fusion protein and β2m; also called iosH2; IosH2

[3] = target: B1; assay: BLI, biotinylated LILRB2 sensors, ANGPTL7 titrated with or without prior incubation of the sensor with iosH2

B1
binding result [1]: binds

B2
binding result [2]: binds

B3
binding result [3]: binds
